Data on 8 sequences can be found in the supplement of paper PMC10065799, “High-throughput profiling of sequence recognition by tyrosine kinases and SH2 domains using bacterial peptide display” (eLife, 2023).

One series deals with c-Abl (mouse). Description: phosphorylation enrichment, bacterial display (enrichment ratio); higher = better substrate or ligand; peptides without Tyr show the background.
The test system of the next series is c-Src. The description is as above.
Another series has as its target Jak2 (UniProt O60674). The series is described as above.
The target of the next series is Fyn (UniProt P06241). The series is described as above.
In the next series the target is Hck (UniProt P08631). The description is as above.
Another series concerns AncSZ. The description is as above.
The next series concerns the target EPHB1 (UniProt P54762). The series is described as above.
A further series concerns the target Fes (UniProt P07332). The series is described as above.
The target in the next series is FGFR1 (UniProt P11362). Described as above.
Chain of FGFR1 (P11362 whole entry, looked up): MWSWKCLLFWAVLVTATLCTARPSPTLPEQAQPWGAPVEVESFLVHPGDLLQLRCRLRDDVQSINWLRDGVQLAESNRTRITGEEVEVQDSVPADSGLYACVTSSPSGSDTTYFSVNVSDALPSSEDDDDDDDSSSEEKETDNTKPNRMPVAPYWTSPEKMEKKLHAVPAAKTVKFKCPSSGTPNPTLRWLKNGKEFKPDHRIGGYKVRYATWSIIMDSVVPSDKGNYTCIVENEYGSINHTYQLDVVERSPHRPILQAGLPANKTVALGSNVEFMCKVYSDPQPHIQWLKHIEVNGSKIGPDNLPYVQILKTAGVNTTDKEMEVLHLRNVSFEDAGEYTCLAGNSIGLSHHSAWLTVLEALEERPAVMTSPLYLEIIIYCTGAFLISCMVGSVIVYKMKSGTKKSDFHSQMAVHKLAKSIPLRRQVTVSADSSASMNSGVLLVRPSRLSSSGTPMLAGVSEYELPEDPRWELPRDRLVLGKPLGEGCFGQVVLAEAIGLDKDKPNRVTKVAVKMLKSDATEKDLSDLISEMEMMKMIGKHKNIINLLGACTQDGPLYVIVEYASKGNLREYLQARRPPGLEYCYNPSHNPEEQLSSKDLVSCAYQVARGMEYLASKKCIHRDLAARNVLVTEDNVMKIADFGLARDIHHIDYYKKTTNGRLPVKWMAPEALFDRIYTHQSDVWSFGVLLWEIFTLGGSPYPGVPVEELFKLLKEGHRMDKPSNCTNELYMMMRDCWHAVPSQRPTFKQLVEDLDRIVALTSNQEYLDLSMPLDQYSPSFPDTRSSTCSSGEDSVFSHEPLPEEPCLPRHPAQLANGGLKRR
The next series deals with Fer (mouse). Described as above.
Another series concerns the target EPHB2 (UniProt P29323). The series is described as above.
A further series concerns the target MERTK (UniProt Q12866). The description is as above.
A further series has as its target FGFR3 (UniProt P22607). Described as above.
In another series the target is SHP2-C SH2. Kind of series: SH2 binding enrichment of the phosphorylated peptide, bacterial display (enrichment ratio); higher = better substrate or ligand; peptides without Tyr show the background.
For the next series, the target named is c-Src SH2. The description is as above.
A further series deals with Grb2 SH2 (UniProt P62993). The series is described as above.
Chain of Grb2 SH2 (P62993 whole entry, looked up, the tested form may be a part): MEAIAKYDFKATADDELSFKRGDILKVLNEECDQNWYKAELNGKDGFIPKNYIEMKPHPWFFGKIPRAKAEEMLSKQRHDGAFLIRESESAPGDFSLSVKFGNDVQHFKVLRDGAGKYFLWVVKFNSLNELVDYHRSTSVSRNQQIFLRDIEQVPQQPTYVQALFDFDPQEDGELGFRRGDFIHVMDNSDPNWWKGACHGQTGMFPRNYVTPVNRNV
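For SH2 binding enrichment of the phosphorylated peptide, bacterial display in this document: peptide library displayed on the E. coli surface as eCPX fusions, selected cells deep-sequenced, score is each peptide's frequency after selection divided by its frequency in the input.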
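For phosphorylation enrichment, bacterial display in this document: 11-residue human phosphosite peptides and single-mutation variants displayed on the E. coli surface, counted by deep sequencing, each peptide's frequency after selection divided by its frequency in the unselected input library; frequency after pTyr selection over input frequency; kinase dosed for 20-30% of maximal phosphorylation in three min.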

Chain of EPHB1 (P54762 whole entry, looked up): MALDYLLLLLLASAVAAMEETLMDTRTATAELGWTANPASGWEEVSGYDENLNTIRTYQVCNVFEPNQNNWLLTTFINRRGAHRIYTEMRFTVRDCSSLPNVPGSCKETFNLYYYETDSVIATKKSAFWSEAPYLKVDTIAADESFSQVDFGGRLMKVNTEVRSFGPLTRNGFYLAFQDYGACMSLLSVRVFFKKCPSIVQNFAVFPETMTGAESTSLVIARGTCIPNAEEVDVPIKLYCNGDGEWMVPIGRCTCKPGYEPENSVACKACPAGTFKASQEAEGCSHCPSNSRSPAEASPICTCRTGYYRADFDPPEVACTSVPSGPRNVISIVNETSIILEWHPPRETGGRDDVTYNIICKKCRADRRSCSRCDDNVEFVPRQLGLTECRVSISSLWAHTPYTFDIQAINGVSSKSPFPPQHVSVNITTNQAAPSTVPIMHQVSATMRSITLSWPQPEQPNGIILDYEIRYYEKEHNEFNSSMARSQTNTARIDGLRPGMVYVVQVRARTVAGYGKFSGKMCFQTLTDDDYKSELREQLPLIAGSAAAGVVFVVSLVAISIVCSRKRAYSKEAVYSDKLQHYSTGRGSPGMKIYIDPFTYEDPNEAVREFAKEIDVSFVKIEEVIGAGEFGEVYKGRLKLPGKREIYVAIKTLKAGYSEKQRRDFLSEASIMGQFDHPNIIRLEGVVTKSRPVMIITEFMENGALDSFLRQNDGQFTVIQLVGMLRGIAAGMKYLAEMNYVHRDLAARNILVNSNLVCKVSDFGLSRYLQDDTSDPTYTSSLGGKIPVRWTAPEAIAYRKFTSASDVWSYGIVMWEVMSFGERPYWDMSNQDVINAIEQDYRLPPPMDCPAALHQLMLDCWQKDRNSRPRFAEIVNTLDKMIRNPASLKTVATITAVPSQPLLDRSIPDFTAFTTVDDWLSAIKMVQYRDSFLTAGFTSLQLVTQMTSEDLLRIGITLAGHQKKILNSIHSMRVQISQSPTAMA
Chain of MERTK (Q12866 whole entry, looked up): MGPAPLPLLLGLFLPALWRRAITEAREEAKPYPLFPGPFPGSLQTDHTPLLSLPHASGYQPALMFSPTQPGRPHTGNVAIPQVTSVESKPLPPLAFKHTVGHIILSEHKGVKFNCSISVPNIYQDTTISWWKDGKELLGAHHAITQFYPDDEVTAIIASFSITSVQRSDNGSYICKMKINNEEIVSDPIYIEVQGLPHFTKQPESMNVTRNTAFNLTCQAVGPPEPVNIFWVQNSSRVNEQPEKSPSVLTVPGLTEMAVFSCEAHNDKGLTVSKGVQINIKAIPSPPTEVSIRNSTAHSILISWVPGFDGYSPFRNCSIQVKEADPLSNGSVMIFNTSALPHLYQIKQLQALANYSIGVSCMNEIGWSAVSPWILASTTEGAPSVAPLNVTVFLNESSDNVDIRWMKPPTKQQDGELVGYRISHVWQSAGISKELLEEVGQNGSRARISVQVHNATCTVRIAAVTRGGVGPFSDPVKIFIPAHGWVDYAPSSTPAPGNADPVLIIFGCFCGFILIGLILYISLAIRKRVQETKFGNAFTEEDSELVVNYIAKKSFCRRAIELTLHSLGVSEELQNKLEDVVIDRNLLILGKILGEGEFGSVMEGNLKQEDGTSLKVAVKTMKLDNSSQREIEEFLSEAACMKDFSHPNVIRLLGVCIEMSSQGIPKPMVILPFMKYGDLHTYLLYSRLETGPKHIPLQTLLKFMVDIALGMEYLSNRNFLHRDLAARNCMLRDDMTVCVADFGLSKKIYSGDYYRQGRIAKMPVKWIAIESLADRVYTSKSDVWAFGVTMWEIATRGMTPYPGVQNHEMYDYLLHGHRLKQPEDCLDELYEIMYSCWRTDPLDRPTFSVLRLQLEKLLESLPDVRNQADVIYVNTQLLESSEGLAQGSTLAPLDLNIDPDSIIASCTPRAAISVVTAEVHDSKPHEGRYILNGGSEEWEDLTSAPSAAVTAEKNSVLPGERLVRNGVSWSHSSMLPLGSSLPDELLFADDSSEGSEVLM
Chain of Jak2 (O60674 whole entry, looked up): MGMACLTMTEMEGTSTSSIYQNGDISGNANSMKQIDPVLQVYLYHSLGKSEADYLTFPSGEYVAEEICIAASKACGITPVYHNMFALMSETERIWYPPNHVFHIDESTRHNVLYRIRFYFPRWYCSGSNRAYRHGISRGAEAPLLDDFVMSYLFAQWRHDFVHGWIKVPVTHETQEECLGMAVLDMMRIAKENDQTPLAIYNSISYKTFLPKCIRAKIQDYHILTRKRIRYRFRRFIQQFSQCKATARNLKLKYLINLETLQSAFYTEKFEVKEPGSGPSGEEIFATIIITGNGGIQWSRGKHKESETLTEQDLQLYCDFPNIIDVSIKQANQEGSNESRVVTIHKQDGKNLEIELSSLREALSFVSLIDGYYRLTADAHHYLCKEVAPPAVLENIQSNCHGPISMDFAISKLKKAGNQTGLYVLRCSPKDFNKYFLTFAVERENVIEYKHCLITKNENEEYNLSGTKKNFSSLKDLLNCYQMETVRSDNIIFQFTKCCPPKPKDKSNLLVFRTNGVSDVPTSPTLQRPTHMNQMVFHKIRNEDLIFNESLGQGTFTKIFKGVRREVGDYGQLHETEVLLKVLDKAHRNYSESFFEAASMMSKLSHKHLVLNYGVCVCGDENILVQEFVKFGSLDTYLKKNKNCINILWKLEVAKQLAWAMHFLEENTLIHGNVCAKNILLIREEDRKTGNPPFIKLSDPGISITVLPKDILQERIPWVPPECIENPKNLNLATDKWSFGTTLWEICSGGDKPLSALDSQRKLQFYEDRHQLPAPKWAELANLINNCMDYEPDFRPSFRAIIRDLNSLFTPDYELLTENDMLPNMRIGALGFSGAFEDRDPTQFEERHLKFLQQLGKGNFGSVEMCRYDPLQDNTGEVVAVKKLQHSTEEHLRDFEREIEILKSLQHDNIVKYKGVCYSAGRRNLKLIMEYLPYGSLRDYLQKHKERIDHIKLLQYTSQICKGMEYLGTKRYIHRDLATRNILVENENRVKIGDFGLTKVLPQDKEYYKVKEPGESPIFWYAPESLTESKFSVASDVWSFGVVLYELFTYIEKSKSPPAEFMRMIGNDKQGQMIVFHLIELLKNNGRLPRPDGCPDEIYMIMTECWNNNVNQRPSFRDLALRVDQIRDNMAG
Chain of FGFR3 (P22607 whole entry, looked up): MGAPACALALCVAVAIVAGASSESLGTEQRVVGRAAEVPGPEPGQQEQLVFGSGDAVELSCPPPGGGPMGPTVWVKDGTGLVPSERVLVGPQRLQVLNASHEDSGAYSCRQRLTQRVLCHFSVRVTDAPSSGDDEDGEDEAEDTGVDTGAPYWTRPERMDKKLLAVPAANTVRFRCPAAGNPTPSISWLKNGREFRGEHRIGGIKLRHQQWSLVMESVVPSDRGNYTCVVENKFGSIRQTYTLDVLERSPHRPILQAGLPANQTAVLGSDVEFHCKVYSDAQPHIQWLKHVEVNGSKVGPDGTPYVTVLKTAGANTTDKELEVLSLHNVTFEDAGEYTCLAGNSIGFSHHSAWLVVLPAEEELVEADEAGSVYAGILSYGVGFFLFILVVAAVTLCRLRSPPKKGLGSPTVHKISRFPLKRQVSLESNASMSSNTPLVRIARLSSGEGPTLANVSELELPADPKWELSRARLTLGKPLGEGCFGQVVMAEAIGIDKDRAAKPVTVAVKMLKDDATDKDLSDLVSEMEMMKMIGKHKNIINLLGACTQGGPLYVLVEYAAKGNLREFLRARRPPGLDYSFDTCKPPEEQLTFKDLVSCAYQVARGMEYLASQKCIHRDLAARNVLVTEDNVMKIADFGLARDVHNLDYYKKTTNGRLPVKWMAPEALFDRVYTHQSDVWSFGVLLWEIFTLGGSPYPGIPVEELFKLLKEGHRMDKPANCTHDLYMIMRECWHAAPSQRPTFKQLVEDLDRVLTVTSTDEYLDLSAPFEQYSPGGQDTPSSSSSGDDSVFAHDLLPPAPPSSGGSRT

PVQAAYRKVVA [HBB_Y131_Q132R]: the phosphorylation enrichment in the series with c-Abl (mouse) was found to be 0.48; in the series with c-Src, 0.421; with Jak2, 0.336; with Fyn, 0.407; in the series with Hck it was 0.543; in the series on AncSZ, 0.502. Further, the phosphorylation enrichment with EPHB1 worked out at 0.199; in the series with Fes it was 0.505; with FGFR1, 0.367; with Fer (mouse) it was 0.339; in the series with EPHB2 it was 0.237; in the series with MERTK it was 0.348. Moreover, in the series with FGFR3, the phosphorylation enrichment is 0.373. Further, the SH2 binding enrichment with SHP2-C SH2 was found to be 0.597; in the series with c-Src SH2, 0.493; with Grb2 SH2, 0.859.
On to PVRIAYGRPRG [SUGP2_Y985_D986G], for which the phosphorylation enrichment with c-Abl (mouse) was 0.5; in the series on c-Src it was 0.816; with Jak2, 1.18; in the series with Fyn, 0.639; in the series with Hck, 1.25; in the series on AncSZ, 1.01. Further, the phosphorylation enrichment with EPHB1 came out at 0.643; in the series with Fes, 0.523; in the series with FGFR1 it was 0.449; in the series on Fer (mouse) it was 0.61; with EPHB2 it was 0.493; in the series with MERTK, 0.606. Besides, the phosphorylation enrichment with FGFR3 came out at 0.64. The values for the SH2 binding enrichment with SHP2-C SH2, with c-Src SH2 and in the series with Grb2 SH2 were 0.506, 0.364 and 0.837, respectively.
In the case of PYTDPYYDYEI [ZC3H18_Y371_A368T], the phosphorylation enrichment in the series with c-Abl (mouse) is 1.59; in the series on c-Src, 6.46; in the series with Jak2, 1.88; with Fyn, 4.83; with Hck it was 2.43; with AncSZ, 3.74. For the same sequence, the phosphorylation enrichment is 2.99 with EPHB1; 1.97 with Fes; 18.9 with FGFR1; 4.55 in the series on Fer (mouse); 3.3 in the series with EPHB2; 3.26 with MERTK. For the same sequence, the phosphorylation enrichment with FGFR3 came out at 14.7. The SH2 binding enrichment in the series with SHP2-C SH2 came to 0.591; in the series with c-Src SH2 it was 2.66; with Grb2 SH2, 1.13.
On to QAYSWYQHQRA [NDST1_Y714_R709Q], for which the phosphorylation enrichment in the series with c-Abl (mouse) is 0.8; with c-Src, 0.642; with Jak2 it was 1.1; with Fyn, 0.516; with Hck it was 0.782; in the series on AncSZ, 1.13. Besides, the phosphorylation enrichment with EPHB1 stood at 0.701; in the series with Fes, 1.01; with FGFR1 it was 1.22; in the series with Fer (mouse) it was 6.78; with EPHB2, 0.901; with MERTK, 3.85. The phosphorylation enrichment with FGFR3 came to 0.883. In addition, the SH2 binding enrichment with SHP2-C SH2 was determined as 1.17; with c-Src SH2, 1.08; with Grb2 SH2, 1.23.
For QDIMAYRSREV [BCL6_Y157_G159S], the phosphorylation enrichment in the series on c-Abl (mouse) is 0.745; in the series with c-Src it was 0.513; in the series with Jak2, 0.759; in the series with Fyn, 0.323; with Hck, 0.314; in the series with AncSZ, 0.569. For the same sequence, the phosphorylation enrichment stood at 0.456 with EPHB1; 0.746 with Fes; 0.285 with FGFR1; 0.196 in the series on Fer (mouse); 0.343 with EPHB2; 0.398 with MERTK. The phosphorylation enrichment with FGFR3 was 0.664. In addition, the results for the SH2 binding enrichment with SHP2-C SH2, with c-Src SH2 and with Grb2 SH2 were 0.955, 0.42 and 0.699, respectively.
On to QEGPEYWDGET [HLA-A_Y83_Q86G], for which the phosphorylation enrichment was 0.964 in the series on c-Abl (mouse); 0.554 in the series on c-Src; 1.67 with Jak2; 0.712 with Fyn; 0.712 with Hck; 1.73 in the series with AncSZ. Besides, the phosphorylation enrichment worked out at 0.739 with EPHB1; 1.71 in the series with Fes; 0.839 with FGFR1; 0.788 in the series on Fer (mouse); 0.786 with EPHB2; 0.627 with MERTK. Moreover, in the series with FGFR3, the phosphorylation enrichment amounted to 1.25. The SH2 binding enrichment with SHP2-C SH2 amounted to 0.662; with c-Src SH2, 0.476; with Grb2 SH2, 0.957.
For QEGPEYWDLET [HLA-A_Y83_Q86L], the phosphorylation enrichment in the series with c-Abl (mouse) came to 1.56; in the series with c-Src, 0.998; with Jak2, 2.02; in the series with Fyn it was 0.846; with Hck it was 0.978; with AncSZ it was 2.76. The phosphorylation enrichment with EPHB1 was 1.59; with Fes, 2.29; with FGFR1, 3.97; in the series on Fer (mouse), 0.748; in the series with EPHB2 it was 1.18; with MERTK, 0.742. The phosphorylation enrichment with FGFR3 is 3.3. For the same sequence, the SH2 binding enrichment with SHP2-C SH2 was 0.583; with c-Src SH2, 0.507; in the series with Grb2 SH2, 0.775.
Consider QELRRYLESGV [MICA_Y194_K196E], for which the phosphorylation enrichment stood at 0.616 in the series on c-Abl (mouse); 0.465 with c-Src; 1.16 with Jak2; 0.772 in the series with Fyn; 0.489 in the series with Hck; 0.597 with AncSZ. The phosphorylation enrichment in the series with EPHB1 stood at 0.749; with Fes, 0.812; with FGFR1 it was 0.62; with Fer (mouse) it was 0.486; with EPHB2 it was 1.54; with MERTK, 0.49. Moreover, the phosphorylation enrichment with FGFR3 worked out at 0.662. For the same sequence, the SH2 binding enrichment with SHP2-C SH2 stood at 0.596; with c-Src SH2, 0.397; with Grb2 SH2, 0.729.
